From PMC8411744, “Engineering a Highly Efficient Carboligase for Synthetic One-Carbon Metabolism” (ACS Catalysis, 2021) come the findings set out here.

The Km is the substrate concentration at which the rate is half of its maximum. Broadly, the kcat/Km is the turnover number divided by the Michaelis constant.

For series [1], the target named is T1, MeOXC (OXC, oxalyl-CoA decarboxylase) (Methylorubrum extorquens, UniProt C5AX46, E135G/A415C/Y497F/S568G).
T1 construct: gene MexAM1_META1p0990; recombinant, produced in E. coli; purified; homotetramer; ThDP and Mg2+ dependent
Kind of series: X-ray crystal structure, […] Å. Format: binding. To be noted: MeOXC4; Mg2+; C-terminus beyond E567 modelled. The text has this:
Substitution E135G gave rise to a cavity in the ThDP binding pocket

Series [2] concerns the target T2, MeOXC (OXC, oxalyl-CoA decarboxylase) (Methylorubrum extorquens, UniProt C5AX46).
T2 construct: gene MexAM1_META1p0990; recombinant, produced in E. coli; purified; homotetramer; ThDP and Mg2+ dependent
Kind of series: X-ray crystal structure, […] Å. Format: binding. The note with it: Mg2+; C-terminal 16 residues modelled.

Substrate in series [3]: CC(C)(COP(=O)(O)OP(=O)(O)OC[C@H]1O[C@@H](n2cnc3c(N)ncnc32)[C@H](O)[C@@H]1OP(=O)(O)O)[C@@H](O)C(=O)NCCC(=O)NCCSC(=O)CO
In words: CoA transfer from glycolyl-CoA to formate, Michaelis-Menten. It is filed as biochemical, Clostridium aminobutyricum. The note with it: formate 25 mM as acceptor. From the text:
CoA transfer from glycolyl-CoA to formate, Michaelis-Menten on AbfT (4-hydroxybutyrate CoA-transferase) | AbfT).

Substrate in series [4]: CC(C)(COP(=O)(O)OP(=O)(O)OC[C@H]1O[C@@H](n2cnc3c(N)ncnc32)[C@H](O)[C@@H]1OP(=O)(O)O)[C@@H](O)C(=O)NCCC(=O)NCCSC(=O)C(=O)O
In words: oxalyl-CoA decarboxylation kinetics. Format: biochemical, Methylorubrum extorquens. The note with it: MeOXC4.

Substrate in series [5]: CC(C)(COP(=O)(O)OP(=O)(O)OC[C@H]1O[C@@H](n2cnc3c(N)ncnc32)[C@H](O)[C@@H]1OP(=O)(O)O)[C@@H](O)C(=O)NCCC(=O)NCCSC=O
Kind of series: steady-state kinetics, glycolyl-CoA synthase (carboligation) activity. The note with it: co-substrate formaldehyde, apparent. Format: biochemical, Methylorubrum extorquens. From the text:
(§1) steady-state kinetics, glycolyl-CoA synthase (carboligation) activity on MeOXC (OXC, oxalyl-CoA decarboxylase)

Substrate in series [6]: C=O
The description is as above. Format: biochemical, Methylorubrum extorquens. To be noted: co-substrate formyl-CoA, apparent.
Excerpt: as §1

For `Cc1ncc(C[n+]2csc(CCOP(=O)(O)OP(=O)(O)O)c2C)c(N)n1` [ThDP], the “X-ray crystal structure, 2.4 Å” value in series [1] is recorded as “Active site of MeOXC4. Substitution E135G gave rise to a cavity in the ThDP binding pocket”. In addition, the “X-ray crystal structure, 1.9 Å” value in series [2] is on record as “The overall structure of MeOXC with bound ThDP (orange)”.

B1: AbfT (4-hydroxybutyrate CoA-transferase) (Clostridium aminobutyricum) (protein)
chain: MDWKKIYEDRTCTADEAVKSIKSGDRVLFAHCVAEPPVLVEAMVANAAAYKNVTVSHMVTLGKGEYSKPEYKENFTFEGWFTSPSTRGSIAEGHGQFVPVFFHEVPSLIRKDIFHVDVFMVMVSPPDHNGFCCVGVSSDYTMQAIKSAKIVLAEVNDQVPVVYGDTFVHVSEIDKFVETSHPLPEIGLPKIGEVEAAIGKHCASLIEDGSTLQLGIGAIPDAVLSQLKDKKHLGIHSEMISDGVVDLYEAGVIDCSQKSIDKGKMAITFLMGTKRLYDFAANNPKVELKPVDYINHPSVVAQCSKMVCINACLQVDFMGQIVSDSIGTKQFSGVGGQVDFVRGASMSIDGKGKAIIAMPSVAKKKDGSMISKIVPFIDHGAAVTTSRNDADYVVTEYGIAEMKGKSLQDRARALINIAHPDFKDELKAEFEKRFNAAF
notes: purified
B1: in series [3], the Km was found to be 12 ± 1 µM and the kcat came to 0.40 ± 0.01 s^–1.

B2: MeOXC (OXC, oxalyl-CoA decarboxylase) (Methylorubrum extorquens AM1; A415C/E135G/S568G/Y497F) (protein)
chain: MTVQAQNIDAITAGAMPHEEPELTDGFHLVIDALKLNGIETIYNVPGIPITDLGRLAQAEGLRVISFRHEQNAGNAAAIAGFLTKKPGICLTVSAPGFLNGLTALANATTNCFPMILISGSSEREIVDLQQGDYGEMDQLAIAKPLCKAAFRVLHAADIGIGVARAIRAAVSGRPGGVYLDLPAKLFSQVIDADLGARSLVKVIDAAPAQLPAPAAIARALDVLKSAERPLIILGKGAAYAQADEAVRALVEESGIPYVPMSMAKGLLPDTHPLSAGAARSTALKDSDVVLLVGARLNWLLSHGKGKTWGEPGSKRFIQIDIEPREMDSNVEIVAPVVGDIGSCVEALLDGIRKDWKGAPSNWLETLRGKREANIAKMAPKLMKNSSPMCFHSALGALRTVIKERPDAILVNEGCNTLDLARGIIDMYQPRKRLDVGTWGVMGIGMGFAVAAAVETGKPVLAVEGDSAFGFSGMEVETICRYELPVCIVIFNNNGIFRGTDTDPTGRDPGTTVFVKNSRYDKMMEAFGGVGVNVTTPDELKRAVDEAMNSGKPTLINAEIDPAAGSEGGNIGSLNPQSTLKKK
notes: recombinant, produced in E. coli; purified; homotetramer; ThDP and Mg2+ dependent
Turning to B2, the figures for the Km in series [4], in series [5] (MeOXC4) and in series [6] (MeOXC4) were 122 ± 16 µM, 220 ± 30 µM and 5000 ± 1000 µM, respectively. The kcat came out at 0.21 ± 0.01 s^–1 in series [4], 2.4 ± 0.2 s⁻¹ in series [5] (MeOXC4) and 2 ± 0.2 s⁻¹ in series [6] (MeOXC4). In addition, the kcat/Km is 11000 M⁻¹ s⁻¹ in series [5] (MeOXC4) and 400 M⁻¹ s⁻¹ in series [6] (MeOXC4).

B3: MeOXC (OXC, oxalyl-CoA decarboxylase) (Methylorubrum extorquens AM1; A415C/E135G/S568G) (protein)
chain: MTVQAQNIDAITAGAMPHEEPELTDGFHLVIDALKLNGIETIYNVPGIPITDLGRLAQAEGLRVISFRHEQNAGNAAAIAGFLTKKPGICLTVSAPGFLNGLTALANATTNCFPMILISGSSEREIVDLQQGDYGEMDQLAIAKPLCKAAFRVLHAADIGIGVARAIRAAVSGRPGGVYLDLPAKLFSQVIDADLGARSLVKVIDAAPAQLPAPAAIARALDVLKSAERPLIILGKGAAYAQADEAVRALVEESGIPYVPMSMAKGLLPDTHPLSAGAARSTALKDSDVVLLVGARLNWLLSHGKGKTWGEPGSKRFIQIDIEPREMDSNVEIVAPVVGDIGSCVEALLDGIRKDWKGAPSNWLETLRGKREANIAKMAPKLMKNSSPMCFHSALGALRTVIKERPDAILVNEGCNTLDLARGIIDMYQPRKRLDVGTWGVMGIGMGFAVAAAVETGKPVLAVEGDSAFGFSGMEVETICRYELPVCIVIFNNNGIYRGTDTDPTGRDPGTTVFVKNSRYDKMMEAFGGVGVNVTTPDELKRAVDEAMNSGKPTLINAEIDPAAGSEGGNIGSLNPQSTLKKK
notes: as for B2
In the case of B3, in series [5] (MeOXC3), the Km came out at 170 ± 40 µM, the kcat turned out to be 1.6 ± 0.1 s⁻¹ and the kcat/Km turned out to be 9400 M⁻¹ s⁻¹. In series [6] (MeOXC3), the Km was found to be 12000 ± 3000 µM, the kcat was determined as 1.6 ± 0.1 s⁻¹ and the kcat/Km was found to be 130 M⁻¹ s⁻¹.

B4: MeOXC (OXC, oxalyl-CoA decarboxylase) (Methylorubrum extorquens AM1) (protein)
chain: MTVQAQNIDAITAGAMPHEEPELTDGFHLVIDALKLNGIETIYNVPGIPITDLGRLAQAEGLRVISFRHEQNAGNAAAIAGFLTKKPGICLTVSAPGFLNGLTALANATTNCFPMILISGSSEREIVDLQQGDYEEMDQLAIAKPLCKAAFRVLHAADIGIGVARAIRAAVSGRPGGVYLDLPAKLFSQVIDADLGARSLVKVIDAAPAQLPAPAAIARALDVLKSAERPLIILGKGAAYAQADEAVRALVEESGIPYVPMSMAKGLLPDTHPLSAGAARSTALKDSDVVLLVGARLNWLLSHGKGKTWGEPGSKRFIQIDIEPREMDSNVEIVAPVVGDIGSCVEALLDGIRKDWKGAPSNWLETLRGKREANIAKMAPKLMKNSSPMCFHSALGALRTVIKERPDAILVNEGANTLDLARGIIDMYQPRKRLDVGTWGVMGIGMGFAVAAAVETGKPVLAVEGDSAFGFSGMEVETICRYELPVCIVIFNNNGIYRGTDTDPTGRDPGTTVFVKNSRYDKMMEAFGGVGVNVTTPDELKRAVDEAMNSGKPTLINAEIDPAAGSESGNIGSLNPQSTLKKK
notes: as for B2
In the case of B4, in series [5] (concentrations in Table S4), the Km was 3000 ± 2000 µM, the kcat amounted to 0.31 ± 0.08 s⁻¹ and the kcat/Km is 100 M⁻¹ s⁻¹. Moreover, in series [6] (concentrations in Table S4), the Km was 100000 ± 20000 µM, the kcat was 0.2 ± 0.01 s⁻¹ and the catalytic efficiency (kcat/Km) was found to be 2 M⁻¹ s⁻¹.

B5: MeOXC (OXC, oxalyl-CoA decarboxylase) (Methylorubrum extorquens AM1; A415C) (protein)
chain: MTVQAQNIDAITAGAMPHEEPELTDGFHLVIDALKLNGIETIYNVPGIPITDLGRLAQAEGLRVISFRHEQNAGNAAAIAGFLTKKPGICLTVSAPGFLNGLTALANATTNCFPMILISGSSEREIVDLQQGDYEEMDQLAIAKPLCKAAFRVLHAADIGIGVARAIRAAVSGRPGGVYLDLPAKLFSQVIDADLGARSLVKVIDAAPAQLPAPAAIARALDVLKSAERPLIILGKGAAYAQADEAVRALVEESGIPYVPMSMAKGLLPDTHPLSAGAARSTALKDSDVVLLVGARLNWLLSHGKGKTWGEPGSKRFIQIDIEPREMDSNVEIVAPVVGDIGSCVEALLDGIRKDWKGAPSNWLETLRGKREANIAKMAPKLMKNSSPMCFHSALGALRTVIKERPDAILVNEGCNTLDLARGIIDMYQPRKRLDVGTWGVMGIGMGFAVAAAVETGKPVLAVEGDSAFGFSGMEVETICRYELPVCIVIFNNNGIYRGTDTDPTGRDPGTTVFVKNSRYDKMMEAFGGVGVNVTTPDELKRAVDEAMNSGKPTLINAEIDPAAGSESGNIGSLNPQSTLKKK
notes: as for B2
Regarding B5, in series [5] (MeOXC1), the Km was 160 ± 50 µM, the kcat is 0.23 ± 0.01 s⁻¹ and the kcat/Km was found to be 1400 M⁻¹ s⁻¹. In series [6] (MeOXC1), the Km was found to be 30000 ± 2000 µM, the kcat stood at 0.34 ± 0.01 s⁻¹ and the kcat/Km is 10 M⁻¹ s⁻¹.

B6: MeOXC (OXC, oxalyl-CoA decarboxylase) (Methylorubrum extorquens AM1; A415C/S568G) (protein)
chain: MTVQAQNIDAITAGAMPHEEPELTDGFHLVIDALKLNGIETIYNVPGIPITDLGRLAQAEGLRVISFRHEQNAGNAAAIAGFLTKKPGICLTVSAPGFLNGLTALANATTNCFPMILISGSSEREIVDLQQGDYEEMDQLAIAKPLCKAAFRVLHAADIGIGVARAIRAAVSGRPGGVYLDLPAKLFSQVIDADLGARSLVKVIDAAPAQLPAPAAIARALDVLKSAERPLIILGKGAAYAQADEAVRALVEESGIPYVPMSMAKGLLPDTHPLSAGAARSTALKDSDVVLLVGARLNWLLSHGKGKTWGEPGSKRFIQIDIEPREMDSNVEIVAPVVGDIGSCVEALLDGIRKDWKGAPSNWLETLRGKREANIAKMAPKLMKNSSPMCFHSALGALRTVIKERPDAILVNEGCNTLDLARGIIDMYQPRKRLDVGTWGVMGIGMGFAVAAAVETGKPVLAVEGDSAFGFSGMEVETICRYELPVCIVIFNNNGIYRGTDTDPTGRDPGTTVFVKNSRYDKMMEAFGGVGVNVTTPDELKRAVDEAMNSGKPTLINAEIDPAAGSEGGNIGSLNPQSTLKKK
notes: as for B2
For the molecule B6, in series [5] (MeOXC2), the Km was found to be 90 ± 20 µM, the kcat was found to be 0.43 ± 0.02 s⁻¹ and the kcat/Km was found to be 5100 M⁻¹ s⁻¹. In series [6] (MeOXC2), the Km worked out at 12000 ± 3000 µM, the kcat came out at 0.57 ± 0.05 s⁻¹ and the kcat/Km was determined as 50 M⁻¹ s⁻¹.
